For data set [1], the system named is Saccharomyces cerevisiae. Briefly: protein stability index of tFT-peptide fusion in wild type (PSI (0-1 scale)); higher = more stable (slower turnover). Particulars: genetic background: wild type.
For data set [2], the system named is Saccharomyces cerevisiae. As to the kind of experiment: protein stability index of tFT-peptide fusion in deletion strain of DOA10 (PSI (0-1 scale)); higher = more stable (slower turnover). The method, then: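 MPS profiling in S. cerevisiae of two library types built from selected 12-aa C-degron peptides (IN1, IN2, LN1, LN3, VN2, R1-R5, W1-W3, Atg1 and Rpa12 C-termini): saturation mutagenesis libraries and C-terminal +1 capping libraries (13 aa). Each peptide is fused to the C-terminus of a sfGFP-mCherry timer, after a GGGS linker. Cells are FACS-sorted into 8 mCherry/sfGFP bins and sequenced. PSI runs from 0 (unstable) to 1 (stable), measured once in wild type and in the das1Δ or doa10Δ background.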
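For protein stability index of tFT-peptide fusion in deletion strain of DOA10 in this document: PSI per variant is the weighted mean of its sequencing read distribution over the sorted stability bins, counting only variants with over 10 reads summed across bins.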
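For protein stability index of tFT-peptide fusion in wild type in this document: PSI derived as read-weighted mean over the 8 sorting bins, only variants exceeding 10 total reads kept, mCherry placed adjacent to the peptide and sfGFP distal.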

Take MITLPMCPLLLR: the protein stability index worked out at 0.302 with Saccharomyces cerevisiae [1] and 0.626 in the data set on Saccharomyces cerevisiae [2].
On to MSLRVLLPLYFR, for which the protein stability index with Saccharomyces cerevisiae [1] stood at 0.314; in the data set on Saccharomyces cerevisiae [2] it was 0.622.
On to QLVSLPILLFFR, for which the results for the protein stability index in the data set with Saccharomyces cerevisiae [1] and with Saccharomyces cerevisiae [2] were 0.0846 and 0.647, respectively.
QSLRVLLPLYFR: the protein stability index with Saccharomyces cerevisiae [1] came to 0.283; in the data set with Saccharomyces cerevisiae [2], 0.659.
For RCTRLDAIYFRI the same measures were 0.46 and 0.674.
For RILRVLLPLYFR the same measures were 0.386 and 0.654.
For RLTRLDAIYFRI the same measures were 0.379 and 0.663.
Consider RQLRVLLPLYFR, for which the protein stability index in the data set with Saccharomyces cerevisiae [1] amounted to 0.216; in the data set with Saccharomyces cerevisiae [2], 0.665.
For RRLRVLLPLYFR the same measures were 0.292 and 0.668.
Taken in the same sequence, the figures for RSLAVLLPLYFR were 0.34 and 0.68.
For RSLRVALPLYFR the same measures were 0.189 and 0.675.
Consider RSLRVLLHLYFR, for which the protein stability index in the data set with Saccharomyces cerevisiae [1] was found to be 0.254; in the data set on Saccharomyces cerevisiae [2], 0.605.
Taken in the same sequence, the figures for RSLRVLLLLYFR were 0.217 and 0.432.
For RSLRVLLPDYFR the same measures were 0.64 and 0.672.
Consider RSLRVLLPGYFR, for which the protein stability index was 0.624 in the data set with Saccharomyces cerevisiae [1] and 0.673 in the data set with Saccharomyces cerevisiae [2].
Turning to RSLRVLLPLEFR, the protein stability index is 0.601 in the data set on Saccharomyces cerevisiae [1] and 0.679 with Saccharomyces cerevisiae [2].
As for RSLRVLLPLTFR, the figures for the protein stability index with Saccharomyces cerevisiae [1] and with Saccharomyces cerevisiae [2] were 0.379 and 0.671, respectively.
Consider RSLRVLLPLYFL, for which the protein stability index with Saccharomyces cerevisiae [1] came to 0.319; in the data set with Saccharomyces cerevisiae [2], 0.516.
On to RSLRVLLPLYFRF, for which the protein stability index with Saccharomyces cerevisiae [1] came to 0.195; with Saccharomyces cerevisiae [2], 0.584.
For the sequence RSLRVLLPLYFRH, the protein stability index is 0.284 with Saccharomyces cerevisiae [1] and 0.616 with Saccharomyces cerevisiae [2].
For RSLRVLLPLYFRQ the same measures were 0.205 and 0.606.
On to RSLRVLLPLYFRV, for which the values for the protein stability index with Saccharomyces cerevisiae [1] and in the data set with Saccharomyces cerevisiae [2] were 0.164 and 0.441, respectively.
On to RSLRVLLPLYIR, for which the protein stability index with Saccharomyces cerevisiae [1] worked out at 0.255; in the data set with Saccharomyces cerevisiae [2], 0.596.
As to RSLRVLLPLYPR, the protein stability index came to 0.65 in the data set on Saccharomyces cerevisiae [1] and 0.69 in the data set with Saccharomyces cerevisiae [2].
For the sequence RSLRVLLPLYWR, the figures for the protein stability index in the data set on Saccharomyces cerevisiae [1] and in the data set on Saccharomyces cerevisiae [2] were 0.301 and 0.658, respectively.
Take RSLRVLLTLYFR: the protein stability index came to 0.391 in the data set on Saccharomyces cerevisiae [1] and 0.511 in the data set on Saccharomyces cerevisiae [2].
With RSLRVLNPLYFR, the protein stability index with Saccharomyces cerevisiae [1] was found to be 0.359; with Saccharomyces cerevisiae [2], 0.684.
In the case of RSLRVLWPLYFR, the values for the protein stability index with Saccharomyces cerevisiae [1] and with Saccharomyces cerevisiae [2] were 0.181 and 0.676, respectively.
Taken in the same sequence, the figures for RSLRVQLPLYFR were 0.136 and 0.685.
With RSLRVSLPLYFR, the protein stability index was determined as 0.15 in the data set with Saccharomyces cerevisiae [1] and 0.687 in the data set with Saccharomyces cerevisiae [2].
As for RSLRVTLPLYFR, the protein stability index with Saccharomyces cerevisiae [1] stood at 0.159; in the data set with Saccharomyces cerevisiae [2], 0.676.
Turning to RSPRVLLPLYFR, the protein stability index was determined as 0.334 with Saccharomyces cerevisiae [1] and 0.681 in the data set on Saccharomyces cerevisiae [2].
Consider RSRRVLLPLYFR, for which the protein stability index in the data set on Saccharomyces cerevisiae [1] was determined as 0.297; in the data set with Saccharomyces cerevisiae [2], 0.702.
For RSSRVLLPLYFR the same measures were 0.346 and 0.699.
For RVCRLDAIYFRI the same measures were 0.403 and 0.638.
Consider RVIRLDAIYFRI, for which the figures for the protein stability index in the data set with Saccharomyces cerevisiae [1] and in the data set on Saccharomyces cerevisiae [2] were 0.331 and 0.653, respectively.
For the sequence RVLRVLLPLYFR, the protein stability index with Saccharomyces cerevisiae [1] came out at 0.369; in the data set with Saccharomyces cerevisiae [2] it was 0.634.
Taken in the same sequence, the figures for RVQRLDAIYFRI were 0.426 and 0.666.
With RVTQLDAIYFRI, the protein stability index is 0.524 with Saccharomyces cerevisiae [1] and 0.685 in the data set on Saccharomyces cerevisiae [2].
As to RVTRIDAIYFRI, the figures for the protein stability index in the data set with Saccharomyces cerevisiae [1] and with Saccharomyces cerevisiae [2] were 0.337 and 0.693, respectively.
On to RVTRLDAINFRI, for which the protein stability index turned out to be 0.683 with Saccharomyces cerevisiae [1] and 0.729 in the data set with Saccharomyces cerevisiae [2].
For the sequence RVTRLDAIYFCI, the protein stability index with Saccharomyces cerevisiae [1] was determined as 0.378; with Saccharomyces cerevisiae [2], 0.435.
On to RVTRLDAIYFPI, for which the protein stability index in the data set on Saccharomyces cerevisiae [1] worked out at 0.703; in the data set with Saccharomyces cerevisiae [2] it was 0.731.
RVTRLDAIYFRIG: the protein stability index in the data set on Saccharomyces cerevisiae [1] worked out at 0.335; in the data set on Saccharomyces cerevisiae [2] it was 0.408.
Regarding RVTRLDAIYFRIP, the results for the protein stability index with Saccharomyces cerevisiae [1] and with Saccharomyces cerevisiae [2] were 0.247 and 0.371, respectively.
Consider RVTRLDAIYFRIV, for which the protein stability index with Saccharomyces cerevisiae [1] is 0.0601; in the data set on Saccharomyces cerevisiae [2] it was 0.114.
Turning to RVTRLDAIYFRP, the values for the protein stability index with Saccharomyces cerevisiae [1] and with Saccharomyces cerevisiae [2] were 0.643 and 0.697, respectively.
RVTRLDAIYVRI: the protein stability index with Saccharomyces cerevisiae [1] was 0.469; in the data set on Saccharomyces cerevisiae [2] it was 0.635.
Consider RVTRLDALYFRI, for which the protein stability index in the data set on Saccharomyces cerevisiae [1] was 0.32; in the data set with Saccharomyces cerevisiae [2], 0.705.
As for RVTRLDFIYFRI, the protein stability index turned out to be 0.171 in the data set on Saccharomyces cerevisiae [1] and 0.596 with Saccharomyces cerevisiae [2].
As for RVTRLDIIYFRI, the protein stability index in the data set on Saccharomyces cerevisiae [1] was 0.271; in the data set with Saccharomyces cerevisiae [2] it was 0.645.
For the sequence RVTRLDNIYFRI, the protein stability index amounted to 0.484 in the data set on Saccharomyces cerevisiae [1] and 0.702 in the data set on Saccharomyces cerevisiae [2].
Consider RVTRLDWIYFRI, for which the protein stability index was found to be 0.164 with Saccharomyces cerevisiae [1] and 0.495 with Saccharomyces cerevisiae [2].
As to RVTRLGAIYFRI, the results for the protein stability index in the data set on Saccharomyces cerevisiae [1] and in the data set with Saccharomyces cerevisiae [2] were 0.317 and 0.634, respectively.
In the case of RVTRLQAIYFRI, the protein stability index in the data set on Saccharomyces cerevisiae [1] was 0.202; in the data set on Saccharomyces cerevisiae [2], 0.402.
For the sequence RVTRVDAIYFRI, the protein stability index was found to be 0.442 with Saccharomyces cerevisiae [1] and 0.68 with Saccharomyces cerevisiae [2].
Taken in the same sequence, the figures for RYLRVLLPLYFR were 0.335 and 0.659.
With SITLPMCPLLLR, the protein stability index amounted to 0.248 in the data set on Saccharomyces cerevisiae [1] and 0.65 in the data set with Saccharomyces cerevisiae [2].
Turning to SSLRVLLPLYFR, the results for the protein stability index in the data set on Saccharomyces cerevisiae [1] and in the data set with Saccharomyces cerevisiae [2] were 0.252 and 0.679, respectively.
For the sequence VLVSLPILLFFR, the protein stability index with Saccharomyces cerevisiae [1] came to 0.0972; in the data set with Saccharomyces cerevisiae [2] it was 0.56.
With VVTRLDAIYFRI, the protein stability index with Saccharomyces cerevisiae [1] turned out to be 0.302; in the data set with Saccharomyces cerevisiae [2], 0.671.
For YLVSLPILLFFR, the figures for the protein stability index with Saccharomyces cerevisiae [1] and with Saccharomyces cerevisiae [2] were 0.0822 and 0.538, respectively.
